We go through 1 molecule from patent US20180094060A1 (PIERRE FABRE MEDICAMENT, published 2018).

In the assay the target is T1, recombinant human insulin receptor (human, UniProt P06213-2 28-944, limits assumed).
T1 construct: ELISA coating protein; also called rhIR; human IR
Nature of the assay: direct ELISA, coated protein 1 µg/ml, hybridoma supernatant. The procedure:
Further characterizations of 810D12 antibody were then performed using hybridoma supernatants such as rhIGF-1R or rmIGF-1R or rhIR ELISA. In all direct ELISAs, proteins of interest were immobilized (1 μg/ml) to the bottom of each well. After saturation, hybridoma supernatants were added to the wells. After a 1-hour incubation period and a washing step, a solution of goat anti-mouse IgG-HRP labelled polyclonal antibody was used for detection, prior to the addition of the TMB substrate. The reaction was stopped with a 1M H₂SO₄ solution before reading the OD with a spectrophotometer at a 450 nm wavelength.

T1 sequence (P06213 other isoform, or with tags, fused parts or gaps limits assumed): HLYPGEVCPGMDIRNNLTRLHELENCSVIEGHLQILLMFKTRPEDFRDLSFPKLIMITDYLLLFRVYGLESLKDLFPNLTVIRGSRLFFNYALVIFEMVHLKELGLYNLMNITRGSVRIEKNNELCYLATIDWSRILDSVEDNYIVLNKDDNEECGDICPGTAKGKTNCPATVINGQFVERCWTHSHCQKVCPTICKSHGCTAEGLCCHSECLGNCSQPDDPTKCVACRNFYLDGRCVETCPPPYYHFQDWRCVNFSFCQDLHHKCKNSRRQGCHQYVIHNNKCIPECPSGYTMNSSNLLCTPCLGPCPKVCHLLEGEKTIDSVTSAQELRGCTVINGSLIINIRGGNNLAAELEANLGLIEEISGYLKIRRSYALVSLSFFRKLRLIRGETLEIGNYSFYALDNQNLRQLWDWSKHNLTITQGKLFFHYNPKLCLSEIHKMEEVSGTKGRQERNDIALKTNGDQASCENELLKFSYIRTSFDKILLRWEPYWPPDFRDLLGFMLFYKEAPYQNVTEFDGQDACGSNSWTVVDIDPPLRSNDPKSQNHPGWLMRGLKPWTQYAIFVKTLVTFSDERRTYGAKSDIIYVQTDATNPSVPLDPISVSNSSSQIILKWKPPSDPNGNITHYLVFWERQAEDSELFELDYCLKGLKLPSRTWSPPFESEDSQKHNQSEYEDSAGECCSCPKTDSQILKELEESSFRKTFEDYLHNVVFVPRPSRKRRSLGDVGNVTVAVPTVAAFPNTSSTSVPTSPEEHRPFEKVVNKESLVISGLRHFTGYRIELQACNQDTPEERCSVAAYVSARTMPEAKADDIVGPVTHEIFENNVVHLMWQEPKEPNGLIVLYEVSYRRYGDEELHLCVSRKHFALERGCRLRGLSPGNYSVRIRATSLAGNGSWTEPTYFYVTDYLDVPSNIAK

B1: 810D12 monoclonal antibody (secreted by hybridoma CNCM I-4893) (antibody, V domains shown)
VH: EVQLQQSGPELVKPGASVKMSCKASGHTFTSYMLHWVKQKPGQGLEWLGFINPYNDVTKYNENFKGKATLTSDKSSSTAYMELNSLTSEDSAVYFCVTTAYYGNGRYFDVWGAGTTVTVSS
VL: DIQMTQTTSSLSASLGDRVTISCRASQDITNYLTWYQQKPDGTVKVLIYYTSRLYSGVPSRFSGSGSGSDYSLTINNLEQEDIATYFCQQGYSLPWTFGGGTKLEIK
notes: Murine monoclonal antibody from a Balb/C hybridoma; The ELISAs used hybridoma supernatant; also called 810D12 antibody; 810D12I-4893
Turning to B1, the binding result is “no binding (tested: 5 µg/ml)”.
